{"source": "patent US20160145598", "molecular_target": "thrombin", "data": [{"protein": "FX-control+ of family 2 (insertion of the thrombin recognition site on fibrinogen = fibrinopeptide A; comparative) (protein) ANSFLEEMKKGHLERECMEETCSYEEAREVFEDSDKTNEFWNKYKDGDQCETSPCQNQGKCKDGLGEYTCTCLEGFEGKNCELFTRKLCSLDNGDCDQFCHEEQNSVVCSCARGYTLADNGKACIPTGPYPCGKQTLERRKRSVAQATSSSGEAPDSITWKPYDAADLDPTENPFDLLDFNQTQPERGDNNLTRDFLAEGGGVRIVGGQECKDGECPWQALLINEENEGFCGGTILSEFYILTAAHCLYQAKRFKVRVGDRNTEQEEGGEAVHEVEVVIKHNRFTKETYDFDIAVLRLKTPITFRMNVAPACLPERDWAESTLMTQKTGIVSGFGRTHEKGRQSTRLKMLEVPYVDRNSCKLSSSFIITQNMFCAGYDTKQEDACQGDSGGPHVTRFKDTYFVTGIVSWGEGCARKGKYGIYTKVTAFLKWIDRSMKTRGLPKAKSHAPEVITSSPLKEDQVDPRLIDGK", "values": [{"measurement": "appearance of FXa after incubation with thrombin (Pefachrome FXa8595 hydrolysis at 405 nm)", "result": "FX-IIa and FX-control+ are capable of being activated by thrombin and of releasing FXa"}]}]}
